# According to the supplement of paper PMC12042874:
# ± gives the uncertainty stated by the source.
# Assay: amyloid nucleation score (Sup35N fusion, yeast selection) (log enrichment); library NNK1; higher = more nucleation; inactive = no reads after selection
# How it was run: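 On medium lacking adenine and uracil, psi-negative yeast expressing peptides of 20 random codons fused to Sup35N were grown 7 days at 30°C after a 24-hour induction with 100 μM copper sulfate. Illumina sequencing of input and output plasmid inserts gave the reads, and sequences under 100 input reads were excluded. The nucleation score is the DiMSum log enrichment of output over input reads, centred on the mode score of non-aggregating sequences.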
row,Substance,amyloid nucleation score
1,IGHVNTYCCIADWSWVRGAG,8.895 ± 0.044
2,NSVHWTASGSDSIPTAIESR,1.58 ± 0.2
3,ECCYWPREK,0.422 ± 0.32
4,YNSFKAVNPLKVGLVYMLKL,0.021 ± 0.55
5,MPGLWVFASALTQQEGTLEM,-0.251 ± 0.79
6,RRNVM,0.519 ± 0.25
7,GGVGLDWLEVVFVCTRGQYD,inactive
8,ELSDTVFRRVCNLIVMVTPV,1.05 ± 0.4
9,FSFYS,-0.44 ± 0.65
10,YGFLNPTSSR,0.632 ± 0.5
11,CRGFFLGFPIHQVKAFCFCR,-0.047 ± 1.7
12,KWHTRENCFSFLYVYFLMFP,inactive
13,RFWAACSFTDGR,1.71 ± 0.13
14,YRGVQCFKATKNARVLLWVV,-0.051 ± 0.52
15,ATCNSVRARGFTPGHHLAPG,-0.405 ± 1.7
16,YILGVRSSYSMFMESQCL,0.543 ± 0.23
17,IWMWEWQHCSEARKNMMWVS,2.1 ± 0.13
18,TGDDSYDVLLVGLVKTSGVY,-0.234 ± 0.34
19,SSKSAWYVRWSVSVQNKGRG,-0.363 ± 0.44
20,SLYYGGLQER,-0.02 ± 0.29
21,LLDSNHSVLYFIFGLVT,1.27 ± 0.42
22,VFFGVVQLICDGVKEIFPNL,4 ± 0.1
23,LAEHHWYWAEMIWSRGHEFT,0.158 ± 0.44
24,INMLTWGWELILSGSSVYED,-0.151 ± 0.41
25,AFPQFLGCLVIFQSHGRRER,8.1 ± 0.064

row,Substance,amyloid nucleation score
1,WLLREIERMDLGDWQLELNI,-0.707 ± 0.83
2,GYARILKDLGYPFPYDLQHL,inactive
3,LMYPSGQSKRWIYRLYMGYR,inactive
4,WTQAPDSAVGDGWGSNGSEA,0.013 ± 0.47
5,HYRSTGMMESSRG,0.522 ± 0.6
6,VQIFEKLVQRSSVRQSENLK,0.037 ± 0.93
7,YNPIVWSTAY,inactive
8,YMVFVVVSI,0.946 ± 0.24
9,CALLRCMLGSYSQYVARVGE,0.504 ± 0.39
10,LFIRYALSFESMWL,0.586 ± 0.52
11,DGVEFPFRMIESRFNGCQD,-0.613 ± 0.77
12,VWFCIYAFVHSYGLYVVSMV,-0.03 ± 0.31
13,GIVRVKSTCERSPDSATYDL,-0.205 ± 0.91
14,LRIERMWVWVSA,0.556 ± 0.65
15,MREELRGSETG,-0.685 ± 0.63
16,LFFHSKYMQRLKL,0.183 ± 0.72
17,LGKRDFSGFSAKSQLFK,-0.613 ± 0.27
18,SELWDLG,-0.197 ± 0.85
19,TTTNCRI,0.057 ± 0.23
20,NGSADNIIVYGYDANLRWVR,0.262 ± 0.43
21,ARERGCRSAH,0.332 ± 0.42
22,TYQTVSKKSEFIMPFGLCSN,-0.011 ± 0.17
23,AFLKLSTRWWKPVIFYKCDL,-0.932 ± 1.1
24,TCHLLPSICKSLWNHDNHGL,inactive
25,CMYFFRVTGKINNINSLYCW,-0.824 ± 0.38

row,Substance,amyloid nucleation score
1,HGIIHFVLQMW,1.85 ± 0.49
2,YCYEQVDSV,0.154 ± 0.42
3,MTPEAL,-0.063 ± 0.43
4,LSQTKSL,-0.012 ± 0.77
5,SSLKDSNLWSEIGTLWLTVM,-0.091 ± 0.25
6,LYVFHRRYYWANYDDRYPLP,0.613 ± 0.48
7,TYEYTRWGWYYLS,1.11 ± 0.12
8,FSTLICIGVE,-0.35 ± 0.65
9,ICAPVEIL,-0.176 ± 0.76
10,RMMFCVVAESGFQVWEVRSG,-0.502 ± 0.42
11,RKSVKRVAKGGNS,3.82 ± 0.14
12,GPALTHTHS,0.306 ± 0.63
13,LRSFIGRRS,0.272 ± 0.32
14,AKSREWGDIARFSHPPALRA,-0.147 ± 0.4
15,IRSSFMLRCIVSYVPCNTGL,-0.027 ± 1.1
16,GQFEHGVGVQQSSGSTQRWL,-1.21 ± 2.4
17,KCWLHCWWTVNKTLRYAVRS,-0.531 ± 0.47
18,SWNKGLREED,0.562 ± 0.72
19,WNRFRIMQLDITG,0.103 ± 0.22
20,VSTIFHIGFVLKFRDYRESE,2.93 ± 0.18
21,MGGRSPMELAISRVVVVVKW,inactive
22,MRAEVALFCGNSASVVCGAW,-0.221 ± 0.34
23,TFCLLSINLEFINVLRLFKS,3.58 ± 0.12
24,SDPYDPRIVVVRIKLLLVME,-0.153 ± 1.4
25,NWTVFLATNGF,-0.095 ± 0.85

row,Substance,amyloid nucleation score
1,ISSLESRTTMRVV,0.377 ± 0.5
2,DLLVNCDAVKLVYLSGYVDV,0.342 ± 0.23
3,NGCLITSWDYCSCRAVYQLT,-0.602 ± 0.39
4,SWTKVHLLVQAL,-1.14 ± 0.86
5,RSVCYIKNPVVAREFLVLSA,inactive
6,YQVCTFSNNGIWLWRLSIPH,1.81 ± 0.23
7,SSPTLLSWVKW,0.99 ± 0.58
8,FVPVKFITIGSYVLHTGSLL,0.834 ± 0.73
9,GESRGS,0.473 ± 0.43
10,AWKLRVFRDSAL,0.608 ± 1.1
11,VWYVLMSSSVTYYLSR,-0.075 ± 0.55
12,RLVLILSYYVRWNWGREDN,inactive
13,RCWRSLPRLLRQFMDSSRTI,-0.27 ± 0.61
14,PASSCAVVELGMKVGEGGIP,-0.386 ± 0.95
15,RYTFQFNYV,0.224 ± 0.38
16,LYIMGRLDFIFRWVTGGFDT,-0.838 ± 0.77
17,YNSWFI,0.586 ± 0.55
18,DGFALGMSRC,inactive
19,SRPYLLRLR,0.455 ± 0.57
20,WIWYFLGRGGYVACRSTKVW,0.016 ± 1.2
21,DRWDFMQLNCIHLEA,0.885 ± 0.88
22,VRSYDRMFYRDPQDLL,-0.077 ± 0.22
23,MLRTAMKCWSTSMGDCLEAF,0.619 ± 0.48
24,GKHSLSPVYLWYGNNY,0.707 ± 0.52
25,SYGRLVGTWL,-0.111 ± 0.54

row,Substance,amyloid nucleation score
1,LLDWGFPG,-1.22 ± 1.6
2,VRDSGRIGMFKMGKV,-0.824 ± 0.88
3,SPLMRFFSTDSGARIFLNMS,-0.388 ± 0.52
4,LWYCYYSVVFILSGALSHCV,-0.252 ± 1.4
5,VYHIYDG,-0.662 ± 0.43
6,CLARNSYPDVFRSETGKEAV,-0.093 ± 0.7
7,DFRLGHDFWANKSFFFTSPN,-0.028 ± 0.31
8,GEFVWKEASATCCSWGKLRR,0.425 ± 0.72
9,SNALVFNFSRHAFVNIVFVY,4.04 ± 0.13
10,QLSFCYHLCWVICEGMVLEV,-0.245 ± 0.42
11,IYFGSCSRLWPHHVNT,0.436 ± 0.73
12,TFTDS,0.176 ± 0.75
13,ASDMSCMQSNSYFNLWTYTM,1.32 ± 0.4
14,EKLNFSNLEGFRGFRLKGSR,-0.271 ± 1.4
15,MCLAMSIFDKTENK,-0.731 ± 0.73
16,QTDLLYSIYRSKDNSGLNLV,0.75 ± 0.56
17,RIRVDVEWSARRPG,2.19 ± 0.17
18,RLWNSRWFPGNLNCWVKLEW,0.044 ± 1.1
19,TVRNYHFVLV,1.46 ± 0.33
20,VIQRTYCGRVLNLHALI,0.245 ± 0.57
21,DLLLRSSTSTVVCIMNRTTS,3.94 ± 0.076
22,FDLTLCICCLRSECYYITPR,8.732 ± 0.049
23,LYNSRTWMIGIGSPAQIV,-0.731 ± 0.61
24,TEGTYDNSSCHSDALGECLW,0.281 ± 0.33
25,YFVHQNKHRTKIIILGLGLI,1.35 ± 0.5

row,Substance,amyloid nucleation score
1,VISMTKMLAWFTGLVYGYYG,-0.21 ± 0.35
2,HQLAFYRFCIASSCSWAYLS,0.825 ± 0.41
3,FMWKINWRENLYRLYSFSAY,-0.11 ± 0.51
4,IRSYHLVFVGM,5.13 ± 0.1
5,DSKPVIILR,-0.516 ± 0.27
6,CVVGLISGSPPIRSVFKCNR,0.156 ± 0.98
7,YLTWYNRYCVRYITNYHPMK,5.96 ± 0.079
8,NADDISVRTGNTQESLSW,0.275 ± 1.2
9,AVVDRDMHYASTCSGGVGCH,-0.186 ± 0.96
10,LNRSGIISITIMTWSFGNAQ,2.75 ± 0.13
11,YAKVLTK,-0.104 ± 0.33
12,RYVLFALWWYKVGAEIYNKV,0.48 ± 0.69
13,IHSGQAEMGTLRYHSNKCKD,-0.554 ± 1.7
14,HCINGCYNSEDVIIVDLLAF,inactive
15,WLGYMDMDNGARQNQYSETG,-0.942 ± 1.4
16,QQGPFVCWIQR,-0.583 ± 1.1
17,TDVMSHGSAETGWCFLMSAF,0.124 ± 0.7
18,RACLQFRQLVGDRLG,1.52 ± 0.73
19,TAWHLSMNALGNSSLDFKGR,1.51 ± 0.16
20,VQGLIQVSVYDRVAGCWHRI,-0.83 ± 0.66
21,HFYFIYCSQIQVFKQV,7.422 ± 0.065
22,SKFSISRTHNSHLSYSGLGG,0.056 ± 0.5
23,LWGDYPFRDVPRTMVDQRRN,0.079 ± 0.98
24,MQNMNEVSIINVAERVVNGG,inactive
25,GVVSKQSYVRITLGTGPSGE,0.476 ± 1.2

row,Substance,amyloid nucleation score
1,LLQMWMEWRVFYYHLFVSAS,0.085 ± 0.55
2,RLHPCRVATRPQHYT,inactive
3,LLYFRVRSMFKGLRNETYMA,0.411 ± 0.27
4,VGFEGHS,-0.58 ± 0.6
5,PTSSMI,0.488 ± 1
6,AVVCVIIFYVNDRLYGCNLS,0.395 ± 0.23
7,THLVTCKGGLSMPDLVYRHV,0.183 ± 0.28
8,AQNSWGGILSVTAGQEFYCL,-0.674 ± 1.7
9,GVKSQYALNKLGCGELWLRL,0.364 ± 0.28
10,HEFHRLDVAVYRG,-0.132 ± 0.29
11,IFLGPVLFVGDTRFCHVLIN,7.789 ± 0.049
12,NFHDEV,-1.22 ± 1.5
13,MYISYLYFCYKRSMYFG,0.718 ± 1.1
14,GIISASSVNTQRWTSGTNTC,inactive
15,LLGAR,0.272 ± 0.79
16,SLNFPLLSQPAPIFVLSDKG,0.974 ± 0.76
17,KLLPYMYCHYN,1.27 ± 0.39
18,WLSGYKSQMVK,-0.291 ± 0.78
19,LVLAENCR,-0.672 ± 0.68
20,QNRSHKPEFGRMPASQPVTN,0.447 ± 0.63
21,TSNNLFKRALVGDYNKVAYR,0.572 ± 0.75
22,CCVRACFPWNVLCKEMIFTR,-0.663 ± 1.6
23,AWNGFDWYHARFCTMSTYIL,-0.56 ± 0.38
